Where no end group is shown, it is not given here. [ ]: non-standard residue; d: D form. pS = N[C@@H](COP(=O)(O)O)C(=O)O

This is an account of results in article PMC11580166, “VPS26 Moonlights as a β-Arrestin-like Adapter for a 7-Transmembrane RGS Protein in Arabidopsis thaliana” (Biochemistry, 2024).

B5: VPS26A/VPS26B heterodimer (complex, Arabidopsis thaliana)
chain 1: MNYLLGAFKPACNISITFTDGKNRKQVPTKKDNGQIVMNPLFQSQETIAGKINIEPYQGKKVEHNGVKVELLGQIEMYFDRGNFYDFTSLVREIDVPGEIYERKTYPFEFSSVEMPYETYNGVNVRLRYVLKVTVTRGYAGSIVEYQDFVVRNYVPLPPINNSIKMEVGIEDCLHIEFEYNKSKYHLKDVILGKIYFLLVRIKIKNMDLEIRRRESTGAGANTHVETETLAKFELMDGAPVRGESIPVRVFLTPYDLTPTHKNINNKFSVKYYLNLVLVDEEDRRYFKQQEITLYRLKEETS
chain 2: MNYLLGAFKPACNISITFSDGKNRKQVPMKKENGQTALVPLFHSQDTISGKVCIEPYQGKKVEHNGVKVELLGQIEMYFDRGNFYDFTSLVRELDVPGEIYERKTYPFEFPTVEMPYETYNGVNVRLRYVLKVTVTRGYAGSILEYQELVVRNYAPLPDINNSIKMEVGIEDCLHIEFEYNKSKYHLKDVILGKIYFLLVRIKMKNMDLEIRRRESTGAGANTHVETETLAKFELMDGTPVRGESIPVRLFLAPYDLTPTHRNINNKFSVKYYLNLVLVDEEDRRYFKQQEITLYRLKEDASS
notes: AtVPS26A, Arabidopsis thaliana, UniProt Q9FJD0, as m1; AtVPS26B, Arabidopsis thaliana, UniProt Q9T091, as m2; In the number-and-brightness rows the id stands for the endogenous heterodimer of the plant; also called VPS26A/B; VPS26A/B dimer; source: E. coli BL21 (DE3), each subunit purified, mixed; copies: 1 + 1
B6: Vacuolar Protein Sorting-Associated 26A (AtVPS26A) (natural protein, Arabidopsis thaliana, UniProt Q9FJD0 1-302, looked up)
chain: MNYLLGAFKPACNISITFTDGKNRKQVPTKKDNGQIVMNPLFQSQETIAGKINIEPYQGKKVEHNGVKVELLGQIEMYFDRGNFYDFTSLVREIDVPGEIYERKTYPFEFSSVEMPYETYNGVNVRLRYVLKVTVTRGYAGSIVEYQDFVVRNYVPLPPINNSIKMEVGIEDCLHIEFEYNKSKYHLKDVILGKIYFLLVRIKIKNMDLEIRRRESTGAGANTHVETETLAKFELMDGAPVRGESIPVRVFLTPYDLTPTHKNINNKFSVKYYLNLVLVDEEDRRYFKQQEITLYRLKEETS
notes: AtVPS26A, Arabidopsis thaliana, UniProt Q9FJD0, gene At5g53530; Fluorescently labelled (Monolith RED-NHS or RED-MALEIMIDE kit) when it was the labelled partner in MST; the His-SUMO tag may have been kept in mass photometry (surmise); also called AtVSP26A; source: E. coli BL21 (DE3), purified (nickel resin, ULP1 cleavage, second nickel, SEC)

In test [1] the target is AtGPA1 (Arabidopsis thaliana) (UniProt P18064). The settings on record: cited from earlier work.
Chain of AtGPA1 (Arabidopsis thaliana) (P18064 2-383): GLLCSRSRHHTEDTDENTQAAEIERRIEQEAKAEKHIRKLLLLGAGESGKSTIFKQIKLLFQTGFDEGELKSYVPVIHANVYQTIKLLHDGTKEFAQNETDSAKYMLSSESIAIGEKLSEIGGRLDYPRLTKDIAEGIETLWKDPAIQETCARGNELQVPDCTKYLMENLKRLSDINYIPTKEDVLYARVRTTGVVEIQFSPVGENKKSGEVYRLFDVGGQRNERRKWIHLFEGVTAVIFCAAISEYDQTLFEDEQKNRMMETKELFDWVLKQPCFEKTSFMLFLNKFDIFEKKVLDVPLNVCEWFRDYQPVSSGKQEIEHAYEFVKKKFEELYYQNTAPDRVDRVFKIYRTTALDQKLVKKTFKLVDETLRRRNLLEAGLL
The target in test [2] is T1, VPS26A/VPS26B heterodimer (Arabidopsis thaliana, UniProt Q9FJD0 1-302; Q9T091 1-303).
T1 chain 1: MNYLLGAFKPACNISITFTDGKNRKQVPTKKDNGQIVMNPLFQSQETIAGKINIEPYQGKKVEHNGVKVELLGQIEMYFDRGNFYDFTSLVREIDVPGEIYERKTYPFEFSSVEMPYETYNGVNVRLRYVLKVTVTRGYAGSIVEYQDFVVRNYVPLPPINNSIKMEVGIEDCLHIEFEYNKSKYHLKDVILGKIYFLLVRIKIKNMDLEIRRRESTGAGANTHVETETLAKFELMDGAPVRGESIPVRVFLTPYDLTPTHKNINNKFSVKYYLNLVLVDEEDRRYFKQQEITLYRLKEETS
T1 chain 2: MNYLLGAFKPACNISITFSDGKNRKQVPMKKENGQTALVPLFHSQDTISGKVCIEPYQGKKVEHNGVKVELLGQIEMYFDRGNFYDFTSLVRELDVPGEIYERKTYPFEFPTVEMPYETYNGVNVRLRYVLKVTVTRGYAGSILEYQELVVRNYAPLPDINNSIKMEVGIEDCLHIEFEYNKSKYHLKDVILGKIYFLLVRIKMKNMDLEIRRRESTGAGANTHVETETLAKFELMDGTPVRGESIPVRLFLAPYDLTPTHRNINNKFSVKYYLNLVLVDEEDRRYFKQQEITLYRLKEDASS
Description: ITC; phosphorylated S428, S431, S435. Background: In ITC the heat of successive injections is recorded.

The target of test [3] is T2, Vacuolar Protein Sorting-Associated 26B (AtVPS26B) (Arabidopsis thaliana, UniProt Q9T091 1-303).
T2 chain: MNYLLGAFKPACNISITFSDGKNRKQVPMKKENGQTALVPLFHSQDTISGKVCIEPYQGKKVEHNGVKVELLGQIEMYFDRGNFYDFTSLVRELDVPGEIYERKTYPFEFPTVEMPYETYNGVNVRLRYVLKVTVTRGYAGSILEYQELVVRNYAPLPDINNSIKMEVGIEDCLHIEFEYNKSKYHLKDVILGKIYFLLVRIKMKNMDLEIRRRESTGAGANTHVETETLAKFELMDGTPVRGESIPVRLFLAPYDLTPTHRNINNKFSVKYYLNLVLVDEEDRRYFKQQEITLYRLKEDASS
In words: ITC; phosphorylated S428, S431, S435.

Test [4] concerns the target T3, Vacuolar Protein Sorting-Associated 26A (AtVPS26A) (Arabidopsis thaliana, UniProt Q9FJD0 1-302).
T3 chain: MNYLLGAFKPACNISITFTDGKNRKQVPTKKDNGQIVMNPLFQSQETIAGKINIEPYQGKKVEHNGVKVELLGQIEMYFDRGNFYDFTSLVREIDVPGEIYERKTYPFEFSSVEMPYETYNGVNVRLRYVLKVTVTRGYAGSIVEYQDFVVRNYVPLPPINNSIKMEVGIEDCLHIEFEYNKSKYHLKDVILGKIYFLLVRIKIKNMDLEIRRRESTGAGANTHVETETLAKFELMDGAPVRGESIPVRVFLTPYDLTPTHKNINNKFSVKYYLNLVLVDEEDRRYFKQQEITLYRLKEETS
In words: ITC; phosphorylated S428, S431, S435.

Test [5] addresses B5. Description: MST; 20 nM fluorescence-labelled protein (RED-NHS or RED-MALEIMIDE), ligand dilution series, 25 °C, PBS pH 7.4, 0.05% Tween-20; apparent Kd; averages of 2 to 4 experiments. The following applies: both partners purified.
Test [6] concerns the target T1, VPS26A/VPS26B heterodimer. Description: ITC.
Test [7] has as its target T3, Vacuolar Protein Sorting-Associated 26A …. In words: ITC.
Test [8] has as its target B6. Description: MST; 20 nM fluorescence-labelled protein (RED-NHS or RED-MALEIMIDE), ligand dilution series, 25 °C, PBS pH 7.4, 0.05% Tween-20; apparent Kd; averages of 2 to 4 experiments. The settings on record: both partners purified.
In test [9] the target is T4, Vacuolar Protein Sorting-Associated 26B (AtVPS26B) (Arabidopsis thaliana, UniProt Q9T091 1-303).
T4 construct: AtVPS26B, Arabidopsis thaliana, UniProt Q9T091, gene At4g27690; the His-SUMO tag may have been kept in mass photometry (surmise); also called VSP26B; source: E. coli BL21 (DE3), purified (nickel resin, ULP1 cleavage, second nickel, SEC)
The test is described as above. The settings on record: both partners purified.

The target in test [10] is T5, Full-length AtRGS1 with a phosphorylated C-tail peptide ligated by sortase A (Arabidopsis thaliana, phosphoserine at 428, 431 and 435).
T5 chain: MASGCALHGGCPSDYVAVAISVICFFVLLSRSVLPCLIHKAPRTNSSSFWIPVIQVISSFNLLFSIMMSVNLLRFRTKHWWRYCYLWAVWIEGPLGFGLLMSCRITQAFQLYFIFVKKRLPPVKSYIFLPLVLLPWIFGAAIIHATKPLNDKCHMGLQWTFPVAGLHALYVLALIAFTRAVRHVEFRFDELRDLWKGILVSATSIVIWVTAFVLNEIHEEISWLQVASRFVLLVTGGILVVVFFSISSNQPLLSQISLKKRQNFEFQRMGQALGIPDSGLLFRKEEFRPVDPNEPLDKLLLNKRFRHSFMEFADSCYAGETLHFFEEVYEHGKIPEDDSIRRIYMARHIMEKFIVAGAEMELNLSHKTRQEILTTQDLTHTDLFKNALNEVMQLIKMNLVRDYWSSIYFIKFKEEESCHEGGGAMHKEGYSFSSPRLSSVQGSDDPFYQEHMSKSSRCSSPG
Description: mass photometry; purified AtRGS1 in detergent micelle (mixture of about 50% tail-ligated and truncated protein) with VPS26A/B heterodimer added. The settings on record: both partners purified.

The target of test [11] is T2, Vacuolar Protein Sorting-Associated 26B …. In words: ITC.
The target in test [12] is Vacuolar Protein Sorting-Associated 26A (AtVPS26A) (Arabidopsis thaliana) (UniProt Q9FJD0). Description: MST; 20 nM fluorescence-labelled protein (RED-NHS or RED-…), ligand dilution series, 25 °C, PBS pH 7.4, 0.05% Tween-20; apparent Kd; averages of 2 to 4 experiments.
In test [13] the target is Vacuolar Protein Sorting-Associated 26B (AtVPS26B) (Arabidopsis thaliana) (UniProt Q9T091). The test is described as above.

Regarding AtRGS1 (from UniProt Q8H1F2), the Kd in test [1] is 125 nM.

B1: AtRGS1 pSer C tail peptide (A421-G459, phosphorylated at S428, S431, S435) (peptide)
peptide: GGGAMHKEGY[pS]FS[pS]PRL[pS]SVQGSDDPFYQEHMSKSSRCSSPG
notes: N-terminal GGG added to the peptide; AtRGS1 C-terminal tail, Arabidopsis thaliana, UniProt Q8H1F2, residues A421-G459; Purity 87%; also called RGS1 pC-tail; ptail; source: synthetic peptide (UNC Peptide Core Facility)
B1: the Kd came to 12 nM in test [2], 17 nM in test [3] and 71 nM in test [4]. In addition, the “fold higher affinity than the unphosphorylated C-tail” value in test [5] was ~5 fold.

B2: AtRGS1 truncated C tail peptide (A421-E447), unphosphorylated (peptide)
peptide: GGGAMHKEGYSFSSPRLSSVQGSDDPFYQE
notes: N-terminal GGG added to the peptide; AtRGS1 C-terminal tail, Arabidopsis thaliana, UniProt Q8H1F2, residues A421-E447; also called ΔC tail; RGS1 delta C-tail; source: synthetic peptide (Tufts University Peptide Core Facility)
In test [6], B2 returned a Kd of 123 nM. In test [5], the binding result is reported as “binds”.

B3: AtRGS1 C tail peptide (A421-G459), unphosphorylated (peptide)
peptide: GGGAMHKEGYSFSSPRLSSVQGSDDPFYQEHMSKSSRCSSPG
notes: N-terminal GGG added to the peptide; AtRGS1 C-terminal tail, Arabidopsis thaliana, UniProt Q8H1F2, residues A421-G459; Purity 99%; also called unphosphorylated C-tail; source: synthetic peptide (UNC Peptide Core Facility)
In the case of B3, the Kd in [6] amounted to 63 nM; in test [7], 317 nM; in test [8] it was 217 nM; in test [9] it was 253 nM.

B4: VPS26B Y85A/E93A mutant (natural protein, Arabidopsis thaliana, UniProt Q9T091 1-303, looked up)
chain: MNYLLGAFKPACNISITFSDGKNRKQVPMKKENGQTALVPLFHSQDTISGKVCIEPYQGKKVEHNGVKVELLGQIEMYFDRGNFADFTSLVRALDVPGEIYERKTYPFEFPTVEMPYETYNGVNVRLRYVLKVTVTRGYAGSILEYQELVVRNYAPLPDINNSIKMEVGIEDCLHIEFEYNKSKYHLKDVILGKIYFLLVRIKMKNMDLEIRRRESTGAGANTHVETETLAKFELMDGTPVRGESIPVRLFLAPYDLTPTHRNINNKFSVKYYLNLVLVDEEDRRYFKQQEITLYRLKEDASS
notes: AtVPS26B, Arabidopsis thaliana, UniProt Q9T091, with Y85A and E93A
As to B4, the “fold lower heterodimerization than VPS26B wildtype” value in [8] is ~10 fold.

Consider B5, for which, in test [10], the “stoichiometry N” value is 1.

Take B6: in test [9], the Kd was ~18 nM.

B7: AtRGS1 RGS domain plus C-terminal tail (residues 284-459) (domain or fragment)
chain: KEEFRPVDPNEPLDKLLLNKRFRHSFMEFADSCYAGETLHFFEEVYEHGKIPEDDSIRRIYMARHIMEKFIVAGAEMELNLSHKTRQEILTTQDLTHTDLFKNALNEVMQLIKMNLVRDYWSSIYFIKFKEEESCHEAMHKEGYSFSSPRLSSVQGSDDPFYQEHMSKSSRCSSPG
For the molecule B7, the Kd in test [6] was 22 nM; in test [11], 40 nM; in test [7], 38 nM; in test [12], 34 nM; in test [13], 35 nM.

Usually stoichiometry N stands for the number of molecules, sites or subunits per partner or assembly.
